Assay results taken from patent US6033882A, “Chiral synthesis of 2-hydroxy carboxylic acids with a dehydrogenase” (Genzyme Corporation, priority 1994, dated 2000).
Residue numbers refer to the chain shown, from its start. Where two headings read alike, the source gives them in different places.

How the values were obtained:
[1] = target: T1, Lactobacillus delbrueckii ssp. Bulgaricus R-2-hydroxy acid dehydrogenase (LB2HADH), wild type (H206), SEQ ID NO:1 (Lactobacillus delbrueckii, UniProt Q48534); assay: Steady-state kinetics of 2-keto acid reduction, followed by NADH oxidation; format: biochemical
T1 construct: no tag mentioned
T1 sequence (Q48534 1-333): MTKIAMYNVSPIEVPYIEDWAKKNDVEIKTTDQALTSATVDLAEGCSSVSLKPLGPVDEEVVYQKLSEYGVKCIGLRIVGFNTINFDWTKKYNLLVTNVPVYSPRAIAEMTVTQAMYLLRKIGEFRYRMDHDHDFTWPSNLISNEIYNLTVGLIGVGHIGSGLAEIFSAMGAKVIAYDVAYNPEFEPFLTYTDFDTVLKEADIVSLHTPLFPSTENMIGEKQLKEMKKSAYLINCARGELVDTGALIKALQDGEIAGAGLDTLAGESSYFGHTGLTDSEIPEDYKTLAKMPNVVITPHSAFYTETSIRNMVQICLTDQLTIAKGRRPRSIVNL
Excerpt: Since 1950, a number of workers have investigated the reduction of 2-oxo carboxylic acids catalysed by R-hydroxy acid dehydrogenases. For these studies, enzymes isolated from a variety of bacte rial sources have bee n employed. For a given 2-oxo acid, a given enzyme activity may be examined by UV spectroscopy and quantified with the Michaelis constant, Km, and the catalytic turnover, kcat.
The two compartment model for the binding pocket of the enzyme is illustrated in accompanying FIG. 1.
The substrate specificity of the purified enzyme was established by following the kinetics of reduction of a variety of 2-ketoacids (see Table 2 above).
(The steady-state kinetic constants of LB2HADH and H206Q in Table 6 below were obtained using standard stopped flow measurements.)

[2] = target: T2, Lactobacillus delbrueckii ssp. Bulgaricus R-2-hydroxy acid dehydrogenase (LB2HADH) variant H206Q (Q206 mutant, Histidine 206 replaced by glutamine) (Lactobacillus delbrueckii, UniProt Q48534, H207Q); assay: as above; format: biochemical
T2 construct: no tag mentioned
T2 sequence (Q48534 1-333 H207Q): T1 sequence (Q48534 1-333) with H207Q
Protocol: Glutamine 206 variant of LB2HADH:
A site-directed mutant was prepared from pGIN113 (Bernard, N., et al, Eur. J. Biochem., (1994), 224, 439-446) using a mutagenic oligonucleotide:
and the Promega "altered sites mutagenesis" kit. The enzyme was purified as for the wild type.
The vQ206 /vwt was 45 at 70 mM substrate.
The results are illustrated in accompanying FIG. 2, the Vmax values for H206Q being divided by 10 to obtain a clearer representation of comparative performance. […] (The steady-state kinetic constants of LB2HADH and H206Q in Table 6 below were obtained using standard stopped flow measurements.)

[3] = substrate: CC(=O)C(=O)O; assay: purified protein, by the assay type; format: biochemical, Lactobacillus delbrueckii ssp. Bulgaricus; details: other: pH 7.5; [NADH] = 0.2 mM; pH 7.5
[4] = substrate: CC(C)C(=O)C(=O)O; assay: purified protein, by the assay type; format: biochemical, Lactobacillus delbrueckii ssp. Bulgaricus; details: other: pH 7.5; [NADH] = 0.2 mM; pH 7.5
[5] = substrate: O=C(O)C(=O)CCC1CCCC1; assay: purified protein, by the assay type; format: biochemical, Lactobacillus delbrueckii ssp. Bulgaricus
[6] = substrate: CCCCC(=O)C(=O)O; assay: purified protein, by the assay type; format: biochemical, Lactobacillus delbrueckii ssp. Bulgaricus; details: other: pH 7.5; [NADH] = 0.2 mM; pH 7.5
[7] = substrate: O=C(O)C(=O)CCc1ccccc1; assay: purified protein, by the assay type; format: biochemical, Lactobacillus delbrueckii ssp. Bulgaricus; details: other: pH 7.5; [NADH] = 0.2 mM; pH 7.5
[8] = substrate: CC(C)CC(=O)C(=O)O; assay: purified protein, by the assay type; format: biochemical, Lactobacillus delbrueckii ssp. Bulgaricus
[9] = substrate: CCC(=O)C(=O)O; assay: purified protein, by the assay type; format: biochemical, Lactobacillus delbrueckii ssp. Bulgaricus; details: other: pH 7.5; [NADH] = 0.2 mM; pH 7.5
[10] = substrate: CCCC(=O)C(=O)O; assay: purified protein, by the assay type; format: biochemical, Lactobacillus delbrueckii ssp. Bulgaricus; details: other: pH 7.5; [NADH] = 0.2 mM; pH 7.5
[11] = substrate: NC(=O)C1=CN([C@@H]2O[C@H](COP(=O)(O)OP(=O)(O)OC[C@H]3O[C@@H](n4cnc5c(N)ncnc54)[C@H](O)[C@@H]3O)[C@@H](O)[C@H]2O)C=CC1; assay: purified protein, by the assay type; details: other: pH 5.5, stopped flow
[12] = other: pH 7.5, [NADH] = 0.2 mM, pH 7.5
[13] = other: pH 5.0, stopped flow, pH 5.0
[14] = other: pH 5.5, stopped flow, pH 5.5
[15] = other: pH 6.0, stopped flow, pH 6.0
[16] = other: pH 6.5, stopped flow, pH 6.5

CC(=O)C(=O)O [pyruvate]
Vm (VM (app): turnover at optimal substrate concentration) ([1]; pH 7.5, [NADH] = 0.2 mM): 48 s⁻¹

CC(C)CC(=O)C(=O)O [ketoisocaproate, 4-methyl-2-oxo-pentanoic acid]
Ki ([2]; read-out: Ki KIC, pH 5.0, stopped flow): 3.5 mM | Ki ([2]; read-out: Ki KIC, pH 5.5, stopped flow): 8.1 mM | Ki ([2]; read-out: Ki KIC, pH 6.0, stopped flow): 5.8 mM | Ki ([2]; read-out: Ki KIC, pH 6.5, stopped flow): 7.6 mM | Ki ([1]; pH 5.5, stopped flow, read-out: Ki KIC): 0.24 mM | Vm/KM ([1]; pH 6): 5e+06 M⁻¹ s⁻¹ | Ki ([1]; pH 6.0, stopped flow, read-out: Ki KIC): 0.31 mM | Vm (VM (app): turnover at optimal substrate concentration) ([1]; pH 7.5, [NADH] = 0.2 mM): 20 s⁻¹

O=C(O)C(=O)Cc1ccccc1 [phenylpyruvate]
Km ([1]; pH 7.5, [NADH] = 0.2 mM, read-out: Km (KM (app): substrate concentration for 0.5 Vmax)): 31 µM

O=C(O)C(=O)CCC1CCCC1 [cyclopentylmethyl, 4-cyclopentyl-2-keto-butanoate]
Ki ([2]; read-out: Ki (substrate), substrate inhibition, Q206 mutant): > 100 mM | Ki ([1]; substrate inhibition, wild type, read-out: Ki (substrate)): 2 mM

O=C(O)C(=O)CCc1ccccc1 [benzylpyruvate, 2-oxo-4-phenyl butanoate]
Vm (VM (app): turnover at optimal substrate concentration) ([1]; pH 7.5, [NADH] = 0.2 mM): 51 s⁻¹

B1: Lactobacillus delbrueckii ssp. Bulgaricus R-2-hydroxy acid dehydrogenase (LB2HADH), wild type (H206), SEQ ID NO:1 (Lactobacillus delbrueckii) (protein)
chain: T1 sequence (Q48534 1-333)
notes: no tag mentioned
Km [3]: 20000 µM | Km [4]: 20000 µM | Km ([5]; other: 0.2 mM NADH, wild type): 8 µM | kcat ([5]; other: 0.2 mM NADH, wild type): 25 s⁻¹ | Km [5, 12]: 10 µM | kcat/Km [5, 12]: 2.8e+06 M⁻¹ s⁻¹ | Km [6]: 20 µM | kcat/Km [6]: 650000 M⁻¹ s⁻¹ | Km [7]: 36 µM | kcat/Km [7]: 1.4e+06 M⁻¹ s⁻¹ | Km [8, 13]: 25 µM | kcat [8, 13]: 170 s⁻¹ | kcat/Km [8, 13]: 7e+06 M⁻¹ s⁻¹ | Km [8, 14]: 30 µM | kcat [8, 14]: 240 s⁻¹ | kcat/Km [8, 14]: 8e+06 M⁻¹ s⁻¹ | Km [8, 15]: 50 µM | kcat [8, 15]: 245 s⁻¹ | kcat/Km [8, 15]: 5e+06 M⁻¹ s⁻¹ | Km [8, 16]: 15 µM | kcat [8, 16]: 75 s⁻¹ | kcat/Km [8, 16]: 5e+06 M⁻¹ s⁻¹ | Km [8, 12]: 22 µM | kcat/Km [8, 12]: 910000 M⁻¹ s⁻¹ | Km [9]: 1700 µM | kcat/Km [9]: 28000 M⁻¹ s⁻¹ | Km [10]: 57 µM | kcat/Km [10]: 330000 M⁻¹ s⁻¹ | Km [11]: 15 µM
